B1: 012417-K04 (protein)
chain: MALPVTALLLPLALLLHAARPLEGKPIPNPLLGLDSTGSGEDLKNVFPPEVAVFEPSKAEIAHTQKATLVCLATGFYPDHVELSWWVNGKEVHSGVCTDPQPLKEQPALNDSRYCLSSRLRVSATFWQNPRNHFRCQVQFYGLSENDEWTQDRAKPVTQIVSAEAWGRADCGITSASYHQGVLSATILYEILLGKATLYAVLVSALVLMAMVKRKDSRGRAKRSGSGATNFSLLKQAGDVEENPGPTSMALPVTALLLPLALLLHAARPQIVLSQSPAILSASPGEKVTMTCRASSSVSYMHWYQQKPGSSPKPWIYATSNLASGVPARFSGSGSGTSYSFTISRVEAEDAATYYCQQWTFNPPTFGGGTRLEIKRTVAAGGGGSGGGGSGGGGSQAYLQQSGAELVRPGASVKMSCKASGYTFTSYNMHWVKQTPRQGLEWIGGIYPGNGDTSYNQKFKGKATLTVGKSSSTAYMQLSSLTSEDSAVYFCARYDYNYAMDYWGQGTSVTVSSASTREQKLISEEDGSGIQNPDPAVYQLRDSKSSDKSVCLFTDFDSQTNVSQSKDSDVYITDKCVLDMRSMDFKSNSAVAWSNKSDFACANAFNNSIIPEDTFFPSSDVPCDVKLVEKSFETDTNLNFQNLSVIGFRILLLKVAGFNLLMTLRLWSSRAKRSGSGVKQTLNFDLLKLAGDVESNPGPSRGHMTEYKPTVRLATRDDVPRAVRTLAAAFADYPATRHTVDPDRHIERVTELQELFLTRVGLDIGKVWVADDGAAVAVWTTPESVEAGAVFAEIGPRMAELSGSRLAAQQQMEGLLAPHRPKEPAWFLATVGVSPDHQGKGLGSAVVLPGVEAAERAGVPAFLETSAPRNLPFYERLGFTVTADVEVPEGPRTWCMTRKPGA
B2: 012417-J04 (protein)
chain: MALPVTALLLPLALLLHAARPLEGKPIPNPLLGLDSTGSGEDLKNVFPPEVAVFEPSKAEIAHTQKATLVCLATGFYPDHVELSWWVNGKEVHSGVCTDPQPLKEQPALNDSRYCLSSRLRVSATFWQNPRNHFRCQVQFYGLSENDEWTQDRAKPVTQIVSAEAWGRADCGITSASYHQGVLSATILYEILLGKATLYAVLVSALVLMAMVKRKDSRGRAKRSGSGATNFSLLKQAGDVEENPGPTSMALPVTALLLPLALLLHAARPSTVMTQSPDSLAVSLGERATINCKSSQSNSNDVAWYQQKPGQSPKVLIYFASNRYSGVPDRFSGSGYGTDFTLTISSLQAEDVAVYFCQQDYSSPLTFGAGTKLELKRADAGGGGSGGGGSGGGGSQIQLVQSGSELKKPGASVKVSCKASGYTFTNFGVNWVRQAPGKGLEWMGWINTYTGEPSYAQGFTGRFVFSLDASVSTAYLQISSLKAEDTATYFCTRRTNYYGTSYYYAMDYWGQGTTVTVSSAKTTTREQKLISEEDGSGIQNPDPAVYQLRDSKSSDKSVCLFTDFDSQTNVSQSKDSDVYITDKCVLDMRSMDFKSNSAVAWSNKSDFACANAFNNSIIPEDTFFPSSDVPCDVKLVEKSFETDTNLNFQNLSVIGFRILLLKVAGFNLLMTLRLWSSRAKRSGSGVKQTLNFDLLKLAGDVESNPGPSRGHMTEYKPTVRLATRDDVPRAVRTLAAAFADYPATRHTVDPDRHIERVTELQELFLTRVGLDIGKVWVADDGAAVAVWTTPESVEAGAVFAEIGPRMAELSGSRLAAQQQMEGLLAPHRPKEPAWFLATVGVSPDHQGKGLGSAVVLPGVEAAERAGVPAFLETSAPRNLPFYERLGFTVTADVEVPEGPRTWCMTRKPGA
B3: 101416-A05 (protein)
chain: MALPVTALLLPLALLLHAARPQSVLTQPPSVSGAPGQRVTISCTGSSSNIGAGFDVHWYQQLPGTAPKLLIYGNSNRPSGVPDRFSGSKSGTSASLAITGLQAEDEADYYCQSYDSSLSGYVFGTGTKVTVLGLEEQKLISEEDLGSGEDLKNVFPPEVAVFEPSKAEIAHTQKATLVCLATGFYPDHVELSWWVNGKEVHSGVCTDPQPLKEQPALNDSRYCLSSRLRVSATFWQNPRNHFRCQVQFYGLSENDEWTQDRAKPVTQIVSAEAWGRADCGITSASYHQGVLSATILYEILLGKATLYAVLVSALVLMAMVKRKDSRGRAKRSGSGATNFSLLKQAGDVEENPGPTSMDWIWRILFLVGAATGAHSFEQVQLVQSGAEVKKPGASVKVSCKASGYTFTDYYMHWVRQAPGQRLEWMGWINPNSGGTNYAQKFQDRITVTRDTSSNTGYMELTRLRSDDTAVYYCARSPYSGVLDKWGQGTLVTVSSTREQKLISEEDLGSGIQNPDPAVYQLRDSKSSDKSVCLFTDFDSQTNVSQSKDSDVYITDKCVLDMRSMDFKSNSAVAWSNKSDFACANAFNNSIIPEDTFFPSSDVPCDVKLVEKSFETDTNLNFQNLSVIGFRILLLKVAGFNLLMTLRLWSSRAKRSGSGVKQTLNFDLLKLAGDVESNPGPSRGHMTEYKPTVRLATRDDVPRAVRTLAAAFADYPATRHTVDPDRHIERVTELQELFLTRVGLDIGKVWVADDGAAVAVWTTPESVEAGAVFAEIGPRMAELSGSRLAAQQQMEGLLAPHRPKEPAWFLATVGVSPDHQGKGLGSAVVLPGVEAAERAGVPAFLETSAPRNLPFYERLGFTVTADVEVPEGPRTWCMTRKPGA
modifications: Synthetic Immune Receptor (SIR)
B4: 092517-F01 (protein)
chain: MALPVTALLLPLALLLHAARPLEGKPIPNPLLGLDSTGSGEDLKNVFPPEVAVFEPSKAEIAHTQKATLVCLATGFYPDHVELSWWVNGKEVHSGVCTDPQPLKEQPALNDSRYCLSSRLRVSATFWQNPRNHFRCQVQFYGLSENDEWTQDRAKPVTQIVSAEAWGRADCGITSASYHQGVLSATILYEILLGKATLYAVLVSALVLMAMVKRKDSRGRAKRSGSGATNFSLLKQAGDVEENPGPTSMALPVTALLLPLALLLHAARPDVVMTQSPSSLSASVGDRVTITCRASQDISKYLNWYQQKPGKAPKLLIYHTSRLHSGVPSRFSGSGSGTDFTLTISSLQPEDFATYYCQQGNTLPYTFGGGTKVEIKGGGGSGGGGSGGGGSQVQLQESGPGLVKPSQTLSLTCTVSGVSLPDYGVSWIRQPPGKGLEWIGVIWGSETTYYNSALKSRVLISVDTSKNQVSLKLSSVTAADTAVYYCARHYYYGGSYAMDYWGQGTTVTVSSTREQKLISEEDGSGIQNPDPAVYQLRDSKSSDKSVCLFTDFDSQTNVSQSKDSDVYITDKCVLDMRSMDFKSNSAVAWSNKSDFACANAFNNSIIPEDTFFPSSDVPCDVKLVEKSFETDTNLNFQNLSVIGFRILLLKVAGFNLLMTLRLWSSRAKRSGSGVKQTLNFDLLKLAGDVESNPGPSRGHMTEYKPTVRLATRDDVPRAVRTLAAAFADYPATRHTVDPDRHIERVTELQELFLTRVGLDIGKVWVADDGAAVAVWTTPESVEAGAVFAEIGPRMAELSGSRLAAQQQMEGLLAPHRPKEPAWFLATVGVSPDHQGKGLGSAVVLPGVEAAERAGVPAFLETSAPRNLPFYERLGFTVTADVEVPEGPRTWCMTRKPGA

Test system: target antigen-expressing cell line
Assay: Jurkat NFAT-GFP assay, coculture with target cell lines expressing the respective target antigen (summary Table 10A)
Type: cell-based, human
Parameters: key: The signs +/−, +, 2+ etc. after the name of the cell lines indicate the relative degree of positivity on the Jurkat-NFAT-GFP assay as measured by the % GFP positive cells; +: relative degree of positivity on the Jurkat-NFAT-GFP assay as measured by the % GFP positive cells; 2+: relative degree of positivity on the Jurkat-NFAT-GFP assay as measured by the % GFP positive cells
Conditions: relative % GFP positive cells; for NFAT-GFP ASSAY Positive Cell lines: RAJI: SIR-expressing Jurkat-NFAT-GFP cells cocultured with RAJI
Procedure, shortened: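 Jurkat cells carrying an NFAT-site IL-2 promoter driving GFP were lentivirally transduced with SIRs, puromycin-selected, then cocultured with antigen-expressing target cells at E:T about 1:2 for about 4–18 hours. GFP induction was read by flow cytometry as % GFP-positive cells versus parental Jurkat-NFAT-GFP.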

| Molecule | NFAT-GFP ASSAY Positive Cell lines: RAJI | NFAT-GFP ASSAY Positive Cell lines: U266 (SIR-expressing Jurkat-NFAT-GFP cells cocultured with U266) | NFAT-GFP ASSAY Positive Cell lines: NALM6 (SIR-expressing Jurkat-NFAT-GFP cells cocultured with NALM6) |
| --- | --- | --- | --- |
| B1 | RAJI (+) |  |  |
| B2 | RAJI (+) |  |  |
| B3 |  | U266 (+) |  |
| B4 | RAJI (+), NALM6 (+) |  | RAJI (+), NALM6 (+) |

Reference: US12269859B2, “Synthetic immune receptors and methods of use thereof” (Angeles Therapeutics, Inc., priority 2016, dated 2025)
